US20230305005A1

Legend:
[1] = molecular target: RBD polypeptide (RBD portion of the SARS-CoV-2 S1 spike protein) (SARS-CoV-2) (UniProt P0DTC2); assay: BLI, biotinylated antibody on streptavidin tip, RBD polypeptide in PBS; row for 10 nM RBD
[2] = molecular target: RBD polypeptide (RBD portion of the SARS-CoV-2 S1 spike protein) (SARS-CoV-2) (UniProt P0DTC2); assay: BLI, biotinylated antibody on streptavidin tip, RBD polypeptide in PBS; row for 100 nM RBD

Substance: Ty1-Biotin (VHH)
- Kd [1]: 9.93 nM
- koff [1]: 0.00101 s⁻¹
- kon [1]: 102000 M⁻¹ s⁻¹
- Kd [2]: 9.93 nM
- koff [2]: 0.00101 s⁻¹
- kon [2]: 102000 M⁻¹ s⁻¹
